Patent publication US20240148728

T1: recombinant SNAP-tagged NLRP1^DR purified from bacteria
T1 chain: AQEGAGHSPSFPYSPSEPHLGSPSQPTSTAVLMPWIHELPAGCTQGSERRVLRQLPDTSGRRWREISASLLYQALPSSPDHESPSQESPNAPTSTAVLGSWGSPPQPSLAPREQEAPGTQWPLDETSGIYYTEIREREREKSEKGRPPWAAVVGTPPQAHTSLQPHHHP

B1: p38β (protein)
chain: MSGPRAGFYRQELNKTVWEVPQRLQGLRPVGSGAYGSVCSAYDARLRQKVAVKKLSRPFQSLIHARRTYRELRLLKHLKHENVIGLLDVFTPATSIEDFSEVYLVTTLMGADLNNIVKCQALSDEHVQFLVYQLLRGLKYIHSAGIIHRDLKPSNVAVNEDCELRILDFGLARQADEEMTGYVATRWYRAPEIMLNWMHYNQTVDIWSVGCIMAELLQGKALFPGSDYIDQLKRIMEVVGTPSPEVLAKISSEHARTYIQSLPPMPQKDLSSIFRGANPLAIDLLGRMLVLDSDQRVSAAEALAHAYFSQYHDPEDEPEAEPYDESVEAKERTLEEWKELTYQEVLSFKPPEPPKPPGSLEIEQ
B2: ZAKα kinase (wild-type) (protein)
chain: MSSLGASFVQIKFDDLQFFENCGGGSFGSVYRAKWISQDKEVAVKKLLKIEKEAEILSVLSHRNIIQFYGVILEPPNYGIVTEYASLGSLYDYINSNRSEEMDMDHIMTWATDVAKGMHYLHMEAPVKVIHRDLKSRNVVIAADGVLKICDFGASRFHNHTTHMSLVGTFPWMAPEVIQSLPVSETCDTYSYGVVLWEMLTREVPFKGLEGLQVAWLVVEKNERLTIPSSCPRSFAELLHQCWEADAKKRPSFKQIISILESMSNDTSLPDKCNSFLHNKAEWRCEIEATLERLKKLERDLSFKEQELKERERRLKMWEQKLTEQSNTPLLPSFEIGAWTEDDVYCWVQQLVRKGDSSAEMSVYASLFKENNITGKRLLLLEEEDLKDMGIVSKGHIIHFKSAIEKLTHDYINLFHFPPLIKDSGGEPEENEEKIVNLELVFGFHLKPGTGPQDCKWKMYMEMDGDEIAITYIKDVTFNTNLPDAEILKMTKPPFVMEKWIVGIAKSQTVECTVTYESDVRTPKSTKHVHSIQWSRTKPQDEVKAVQLAIQTLFTNSDGNPGSRSDSSADCQWLDTLRMRQIASNTSLQRSQSNPILGSPFFSHFDGQDSYAAAVRRPQVPIKYQQITPVNQSRSSSPTQYGLTKNFSSLHLNSRDSGFSSGNTDTSSERGRYSDRSRNKYGRGSISLNSSPRGRYSGKSQHSTPSRGRYPGKFYRVSQSALNPHQSPDFKRSPRDLHQPNTIPGMPLHPETDSRASEEDSKVSEGGWTKVEYRKKPHRPSPAKTNKERARGDHRGWRNF

Target: T1, recombinant SNAP-tagged NLRP1^DR …

Protein	phosphorylation in a recombinant kinase assay	phosphorylation in a recombinant kinase reaction (PhosTag SDS-PAGE, SNAP ligand fluorescence)
B1	both p38α/β can phosphorylate NLRP1^DR in a recombinant kinase assay	–
B2	–	recombinant ZAKα is sufficient to phosphorylate SNAP-tagged NLRP1^DR purified from bacteria
